The target of this assay is full-length murine Notch1 expressed on 32D myeloid progenitor cells (murine) (UniProt Q01705). Kind of assay: cell-based or functional assay.
Sequence of full-length murine Notch1 expressed on 32D myeloid progenitor cells (murine) (Q01705 19-2531): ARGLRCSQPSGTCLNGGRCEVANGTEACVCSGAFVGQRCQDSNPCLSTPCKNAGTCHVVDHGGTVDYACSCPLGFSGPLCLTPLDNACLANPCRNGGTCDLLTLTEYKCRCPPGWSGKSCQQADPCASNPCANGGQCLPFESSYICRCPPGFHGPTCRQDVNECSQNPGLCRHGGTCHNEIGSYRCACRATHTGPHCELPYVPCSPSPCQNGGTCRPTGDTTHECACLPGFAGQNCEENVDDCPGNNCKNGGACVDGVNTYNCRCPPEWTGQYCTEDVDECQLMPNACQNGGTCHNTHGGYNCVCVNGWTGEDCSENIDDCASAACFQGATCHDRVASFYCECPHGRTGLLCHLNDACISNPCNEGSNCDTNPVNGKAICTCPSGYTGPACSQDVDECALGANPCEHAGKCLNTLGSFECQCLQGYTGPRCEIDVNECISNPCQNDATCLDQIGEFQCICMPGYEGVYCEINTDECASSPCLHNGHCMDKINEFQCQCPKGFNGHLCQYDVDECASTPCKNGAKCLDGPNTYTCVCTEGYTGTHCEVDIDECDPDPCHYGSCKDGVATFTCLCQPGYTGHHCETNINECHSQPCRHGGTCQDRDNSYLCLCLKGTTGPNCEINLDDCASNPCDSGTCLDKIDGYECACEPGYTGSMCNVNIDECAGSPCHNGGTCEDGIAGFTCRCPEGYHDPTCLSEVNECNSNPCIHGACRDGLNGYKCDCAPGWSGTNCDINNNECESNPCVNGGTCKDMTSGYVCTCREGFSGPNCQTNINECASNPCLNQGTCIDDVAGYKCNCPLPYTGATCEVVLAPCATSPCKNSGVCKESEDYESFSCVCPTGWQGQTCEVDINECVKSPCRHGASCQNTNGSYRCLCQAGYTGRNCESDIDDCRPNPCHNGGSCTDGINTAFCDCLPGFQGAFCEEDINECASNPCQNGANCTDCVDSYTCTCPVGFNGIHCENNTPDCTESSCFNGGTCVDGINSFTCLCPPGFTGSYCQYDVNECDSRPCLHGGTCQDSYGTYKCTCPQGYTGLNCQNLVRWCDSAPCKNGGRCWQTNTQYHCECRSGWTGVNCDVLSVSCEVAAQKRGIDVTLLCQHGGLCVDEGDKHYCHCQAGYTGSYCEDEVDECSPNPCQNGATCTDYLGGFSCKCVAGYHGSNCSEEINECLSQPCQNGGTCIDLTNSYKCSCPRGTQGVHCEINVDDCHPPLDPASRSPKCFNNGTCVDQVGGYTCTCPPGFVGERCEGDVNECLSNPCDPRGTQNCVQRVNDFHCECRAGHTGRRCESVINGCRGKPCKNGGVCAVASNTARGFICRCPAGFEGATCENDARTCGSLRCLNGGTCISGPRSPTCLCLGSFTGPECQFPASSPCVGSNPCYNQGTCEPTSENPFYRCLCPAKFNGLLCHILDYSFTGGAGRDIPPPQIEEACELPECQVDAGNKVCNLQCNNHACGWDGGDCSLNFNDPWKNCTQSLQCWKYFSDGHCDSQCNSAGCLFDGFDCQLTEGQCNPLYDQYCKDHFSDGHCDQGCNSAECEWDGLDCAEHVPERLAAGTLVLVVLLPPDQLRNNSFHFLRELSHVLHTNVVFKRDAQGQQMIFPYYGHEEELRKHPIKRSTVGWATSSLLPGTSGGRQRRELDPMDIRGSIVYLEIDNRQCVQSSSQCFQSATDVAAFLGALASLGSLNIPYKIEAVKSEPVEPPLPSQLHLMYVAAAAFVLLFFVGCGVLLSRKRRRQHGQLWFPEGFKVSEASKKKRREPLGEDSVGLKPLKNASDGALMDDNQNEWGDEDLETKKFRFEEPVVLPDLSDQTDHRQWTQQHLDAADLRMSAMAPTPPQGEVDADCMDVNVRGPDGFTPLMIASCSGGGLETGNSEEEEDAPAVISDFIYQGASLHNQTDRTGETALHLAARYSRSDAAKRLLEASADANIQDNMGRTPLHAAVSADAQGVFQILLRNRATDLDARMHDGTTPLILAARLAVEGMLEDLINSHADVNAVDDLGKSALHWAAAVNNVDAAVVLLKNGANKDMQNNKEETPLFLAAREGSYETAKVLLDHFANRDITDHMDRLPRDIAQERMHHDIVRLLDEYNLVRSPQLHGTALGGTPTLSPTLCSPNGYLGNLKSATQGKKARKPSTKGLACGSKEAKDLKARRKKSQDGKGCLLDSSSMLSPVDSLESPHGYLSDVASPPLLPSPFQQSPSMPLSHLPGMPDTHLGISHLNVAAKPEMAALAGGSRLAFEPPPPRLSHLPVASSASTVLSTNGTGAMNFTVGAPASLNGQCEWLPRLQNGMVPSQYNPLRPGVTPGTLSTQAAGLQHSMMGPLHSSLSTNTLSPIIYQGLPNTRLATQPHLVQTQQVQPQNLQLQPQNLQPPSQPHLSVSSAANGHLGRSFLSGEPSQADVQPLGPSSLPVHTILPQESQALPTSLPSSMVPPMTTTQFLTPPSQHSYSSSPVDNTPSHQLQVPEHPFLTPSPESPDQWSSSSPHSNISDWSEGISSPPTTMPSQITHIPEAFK

The substance “human JAGGED1 (hJAGGED1) expressed on HS-27a human bone marrow stromal cells (from UniProt P78504 22-1218) (ligand)” came in with a Replating efficiency (FL Notch1 32D clones after 6 days on HS-27a with G-CSF) of 190%, a percent of full-length Notch1-expressing 32D cells mature by day 6 on HS-27a in G-CSF of 20% and a percent of full-length Notch1-expressing 32D cells remaining undifferentiated by day 6 on HS-27a in G-CSF of 40%.

The values above are taken from US6703198.
